Assay results: patent US6627200

Molecular target: CD137 ligand expressed by the monocytes (human) (UniProt P41273)
Assay: cell-based or functional assay

Sequence of UniProt P41273 (P41273 whole entry): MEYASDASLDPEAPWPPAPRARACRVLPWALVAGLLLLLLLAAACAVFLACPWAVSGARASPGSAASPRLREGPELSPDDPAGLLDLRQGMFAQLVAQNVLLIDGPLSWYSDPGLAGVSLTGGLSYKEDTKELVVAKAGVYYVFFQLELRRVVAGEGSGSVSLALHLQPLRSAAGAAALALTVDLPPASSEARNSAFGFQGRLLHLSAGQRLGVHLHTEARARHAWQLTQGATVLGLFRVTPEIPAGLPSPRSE

3H-thymidine incorporation of peripheral monocytes on immobilized CD137-Fc, against control cells: > 30 fold
Substance: Recombinant CD137-Fc protein, consisting of the extracellular domain of human CD137 and the constant domain of human immunoglobulin G1 (Fc) (from UniProt Q07011 18-186) (Fc fusion)
